In US20250302982A1 (Genmab, published 2025):

What was measured:
[1] = target: T1, Tissue Factor (TF) (human, UniProt P13726 33-295); assay: cell-based or functional assay
[2] = target: T1, Tissue Factor (TF); assay: flow cytometry on HNSCC cell lines, 2 µg/ml tisotumab, PE-conjugated goat (Fab')2 anti-human IgG secondary

B1: tisotumab vedotin (antibody, IgG1, V domains shown)
VH: EVQLLESGGGLVQPGGSLRLSCAASGFTFSNYAMSWVRQAPGKGLEWVSSISGSGDYTYYTDSVKGRFTISRDNSKNTLYLQMNSLRAEDTAVYYCARSPWGYYLDSWGQGTLVTVSS
VL: DIQMTQSPPSLSASAGDRVTITCRASQGISSRLAWYQQKPEKAPKSLIYAASSLQSGVPSRFSGSGSGTDFTLTISSLQPEDFATYYCQQYNSYPYTFGQGTKLEIK
modifications: MC-vc-PAB-MMAE (vcMMAE) attached to sulphydryl residues of the antibody; positions not given
IC50 of cell killing (percent viable cells, Cell Titer-Blue, day 5); HNSCC cell lines with intermediate and high TF expression [1]: 2.5 to 7 ng/mL
IC50 of cell killing (percent viable cells, Cell Titer-Blue, day 5); primary keratinocytes and VU-SCC-OE (low TF expression) [1]: > 25 ng/mL

B2: tisotumab (antibody, IgG1, V domains shown)
VH: B1 VH
VL: B1 VL
notes: Tested as IgG1 (IgG1-1015-011, Genmab); also called antibody 011; IgG1-1015-011
binding result [2]: binds
